Reference: paper PMC9597168, “ATP-dependent polymerization dynamics of bacterial actin proteins involved in Spiroplasma swimming” (Open Biology, 2022)
Substitutions are numbered along the chain they refer to. Numbers in names are those of the source.

Key:
[1] = target: Spiroplasma eriocheiris MreB3 wild-type (Spiroplasma eriocheiris); test: sedimentation assay (ultracentrifugation of polymers, SDS-PAGE of pellet and supernatant); buffer S (20 mM Tris-HCl pH 8.0, 1 M NaCl, 200 mM L-arginine-HCl pH 8.0, 5 mM DTT, 2 mM MgCl2, 2 mM ATP), 1 h, 436 000 x g for 120 min at 23°C; bulk critical concentration = x-intercept of the linear fit of pellet against total concentration
[2] = target: SpeMreB5 D162S (Spiroplasma eriocheiris); test: as above
SpeMreB5 = target: T1, SpeMreB5 (Spiroplasma eriocheiris, UniProt A0A0H3XIQ3); test: Pi release assay (MESG coupled, A360); format: biochemical; conditions: 2 mM ATP, 2 mM MgCl2, pH 7.5, 100 mM KCl, about 25 °C
T1 construct: gene mreB5; full length, 6xHis fusion, E. coli expressed, purified as monomer
T1 sequence (A0A0H3XIQ3 1-350): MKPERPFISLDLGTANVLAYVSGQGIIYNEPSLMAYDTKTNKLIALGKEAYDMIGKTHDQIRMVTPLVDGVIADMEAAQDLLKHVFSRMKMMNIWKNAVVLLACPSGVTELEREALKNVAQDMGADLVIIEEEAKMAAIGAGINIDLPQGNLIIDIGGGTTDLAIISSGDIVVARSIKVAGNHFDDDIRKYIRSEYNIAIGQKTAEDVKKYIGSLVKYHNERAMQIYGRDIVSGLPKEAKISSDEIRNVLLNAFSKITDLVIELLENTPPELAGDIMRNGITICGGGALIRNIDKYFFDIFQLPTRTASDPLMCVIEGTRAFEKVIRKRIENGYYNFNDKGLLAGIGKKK

[3] = target: SpeMreB5 T160A (Spiroplasma eriocheiris); test: sedimentation assay (ultracentrifugation of polymers, SDS-PAGE of pellet and supernatant); buffer S (20 mM Tris-HCl pH 8.0, 1 M NaCl, 200 mM L-arginine-HCl pH 8.0, 5 mM DTT, 2 mM MgCl2, 2 mM ATP), 1 h, 436 000 x g for 120 min at 23°C; bulk critical concentration = x-intercept of the linear fit of pellet against total concentration
[4] = target: SpeMreB5 T160K (Spiroplasma eriocheiris); test: as above
[5] = target: Spiroplasma eriocheiris MreB5 wild-type (Spiroplasma eriocheiris); test: as above
[6] = target: Spiroplasma eriocheiris MreB5 wild-type (Spiroplasma eriocheiris); test: sedimentation assay (ultracentrifugation of polymers, SDS-PAGE of pellet and supernatant); buffer S with Mg-ADP instead of Mg-ATP; bulk critical concentration = x-intercept of the linear fit
[7] = target: Spiroplasma eriocheiris MreB5 wild-type (Spiroplasma eriocheiris); test: sedimentation assay (ultracentrifugation of polymers, SDS-PAGE of pellet and supernatant); buffer S with Mg-AMPPNP instead of Mg-ATP; bulk critical concentration = x-intercept of the linear fit
[8] = target: the molecule itself; test: negative-staining electron microscopy; polymerized 3 h at room temperature in standard buffer (20 mM Tris-HCl pH 7.5, 100 mM KCl, 5 mM DTT) with 2 mM MgCl2 and 2 mM ATP; 10 µM SpeMreB3, 5 µM SpeMreB5, diluted to 3 µM before the grid
[9] = target: the molecule itself; test: sedimentation assay (ultracentrifugation of polymers, SDS-PAGE of pellet and supernatant); buffer S (20 mM Tris-HCl pH 8.0, 1 M NaCl, 200 mM L-arginine-HCl pH 8.0, 5 mM DTT, 2 mM MgCl2, 2 mM ATP), 1 h, 436 000 x g for 120 min at 23°C; bulk critical concentration = x-intercept of the linear fit of pellet against total concentration

Spiroplasma eriocheiris MreB3 wild-type (from UniProt A0A0H3XJK5 1-352) (natural protein)
critical concentration (CC) [1]: 2.8 µM

SpeMreB5 D162S (from UniProt A0A0H3XIQ3 1-350) (natural protein)
critical concentration (CC) [2]: 0.07 µM

Nc1ncnc2c1ncn2[C@@H]1O[C@H](COP(=O)(O)OP(=O)(O)OP(=O)(O)O)[C@@H](O)[C@H]1O [ATP]
Pi release assay (MESG coupled, A360) (SpeMreB5): SpeMreB5 hydrolysed ATP and released Pi over time

SpeMreB5 T160A (from UniProt A0A0H3XIQ3 1-350) (natural protein)
critical concentration (CC) [3]: 0.15 µM

SpeMreB5 T160K (from UniProt A0A0H3XIQ3 1-350) (natural protein)
critical concentration (CC) [4]: 0 µM

Spiroplasma eriocheiris MreB5 wild-type (from UniProt A0A0H3XIQ3 1-350) (natural protein)
critical concentration (CC) [5]: 0.14 µM | critical concentration (CC) [6]: 0.39 µM | critical concentration (CC) [7]: 0.29 µM

B1: SpeMreB3 S176D (natural protein)
chain: MTITDVLKNTFNISPKPPRKFIAIDLGTTNSIAYIGGRGIIYNEASVMAYETGTKKLVALGEDARKLIGKTHDKIEIYTPLRNGAITDLRIAEEFIQHIGNRAKVQDVWKGSIVLIACPKSVTELERRAMVEMCKHLGADLVQVEEDTLMAALGAGANIFAPKGTFILDIGGGKTDAGIISAGGIVVSKSIKIAGNYIDEEILKYIRAKHTISIGVVTAEQIKKQIGSLYKGKETKKMVIFGRDVVTGMPKETEILDSEIRKLLISIFSSITQLVTDILESTPAELAGDAVMNGLLVSGGCAQISGLKEFLESYFQIPVKIAKNPQTAVIDGCIAYEKEIRDRLIEENKKNK
binding result [8]: binds

B2: SpeMreB3 K174T (natural protein)
chain: B1 chain with K174T, D176S
critical concentration (CC) [9]: 2.2 µM

B3: SpeMreB3 K174T/S176D (natural protein)
chain: B1 chain with K174T
critical concentration (CC) [9]: 2.15 µM

B4: SpeMreB3 D147E (natural protein)
chain: B1 chain with D147E, D176S
critical concentration (CC) [9]: 1.26 µM
